The text below walks through data of article PMC8857481.

The experiment addresses FLAG-METTL5-G61D (human) (UniProt Q9NRN9). The experiment can be described thus: co-IP; anti-FLAG M2 beads in clarified lysate of transfected HeLa cells, 1 h at 4 °C; 50 mM Tris pH 7.4, 150 mM NaCl, 10% glycerol, 1.5 mM MgCl2, 0.5 mM EDTA, 0.2% NP-40, 1 mM DTT; three washes; Western blot with anti-FLAG and anti-TRMT112. (A western blot detects proteins with antibodies after separation by electrophoresis.)
UniProt Q9NRN9, sequence (Q9NRN9 whole entry G61D): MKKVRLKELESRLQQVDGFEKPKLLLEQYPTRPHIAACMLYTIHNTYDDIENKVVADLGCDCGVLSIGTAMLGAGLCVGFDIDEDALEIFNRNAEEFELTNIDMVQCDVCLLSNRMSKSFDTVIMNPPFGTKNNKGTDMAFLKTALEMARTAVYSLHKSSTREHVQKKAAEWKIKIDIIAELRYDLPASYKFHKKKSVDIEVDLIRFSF

B1: TRMT112 (natural protein)
chain: MKLLTHNLLSSHVRGVGSRGFPLRLQATEVRICPVEFNPNFVARMIPKVEWSAFLEAADNLRLIQVPKGPVEGYEENEEFLRTMHHLLLEVEVIEGTLQCPESGRMFPISRGIPNMLLSEEETES
B1 had a TRMT112 bound relative to that bound to FLAG-METTL5-WT of 5 to 15%.
